Target: the molecule itself
Experiment: SDS-PAGE + MALDI-TOF; purified GbXΔNC heat-denatured in SDS sample buffer (2.5% β-mercaptoethanol), 15% SDS-PAGE; also 10–15% gradient gels (PhastSystem) in the absence and presence of DTT; bands identified by MALDI-TOF after tryptic digest

B1: N- and C-terminally truncated Danio rerio globin X (GbXΔNC) (domain or fragment, Danio rerio (zebrafish), UniProt A0AC58HMV5 25-184, looked up)
chain: PAGLTANHIRLIKESWRLIQEDIAKVGIIMFVRLFETHPECKDVFFLFRDVEDLERLRTSRELRAHGLRVMSFIEKSVARLDQLERLETLALELGKSHYRYNAPPKYYGYVGAEFICAVRPILKDRWTPELEEAWKTLFQYVTSIMREGFLEEERNKRSN
notes: globin X (GbX) of zebrafish (Danio rerio), amino acids 25 to 184 (the globin core), cloned into pET3a; Heme protein; No tag is mentioned for the pET3a construct; also called recombinant truncated GbX; source: E. coli BL21(DE3)pLysS, purified (ammonium sulfate precipitation, ion-exchange, size exclusion chromatography)
B1 was tested, and the “stoichiometry N” value was 2.
